Earlier results on one substance are cited in paper PMC7878404.

The term Kd denotes the concentration at which binding is half-saturated.

The data set deals with Bex1 50-75 (UniProt Q9R224).
Sequence of UniProt Q9R224 (Q9R224 50-75): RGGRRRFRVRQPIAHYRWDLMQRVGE

Regarding OMP (from UniProt P08523), the Kd was 150 µM.
